Experimental data as given in US20100151003A1.
Bridges are numbered along the chain shown (N, C = ends). Where no end group is shown, it is not given here. DSPE = distearoylphosphatidylethanolamine; PEG3400 = polyethylene glycol, 3400 Da; PEG = not defined here

B1: P190-PEG-DSPE conjugate inserted in STEALTH liposomes (peptide)
peptide: {DSPE-PEG3400}-DPCTWEVWGRECLQ
modifications: disulfide 3-12; not fully specified; also: inserted in liposomes
B2: Biotinylated-PEGylated P190 (peptide)
peptide: DPCTWEVWGRECLQ-{PEG-biotin}
modifications: disulfide 3-12 (inferred); reading uncertain

Key:
[1] = target: human EGFR on tumor cells (human) (UniProt P00533); assay: cell-based or functional assay
[2] = target: human EGFR on tumor cells (human) (UniProt P00533); assay: FACS, A431 cells preincubated with 2 ug EGF, 2 uM bio-P190:avidin complex, 4 °C

Row | Binder | IC50 D4 (ug/ml), cell killing of MDA-MB-468 cells, 1 h treatment [1] [µg/mL] | IC50 D6 (ug/ml), cell killing of MDA-MB-468 cells, 1 h treatment [1] [µg/mL] | staining, fold over background (fold over background) [2]
1 | B1 | 120 | 35 | –
2 | B2 | – | – | 20
